From patent publication US20150197564A1 (Regeneron, published 2015)

What was measured:
[1] = target: T1, hANGPTL3(17-169)-mFc (human); assay: cell-based or functional assay
T1 chain: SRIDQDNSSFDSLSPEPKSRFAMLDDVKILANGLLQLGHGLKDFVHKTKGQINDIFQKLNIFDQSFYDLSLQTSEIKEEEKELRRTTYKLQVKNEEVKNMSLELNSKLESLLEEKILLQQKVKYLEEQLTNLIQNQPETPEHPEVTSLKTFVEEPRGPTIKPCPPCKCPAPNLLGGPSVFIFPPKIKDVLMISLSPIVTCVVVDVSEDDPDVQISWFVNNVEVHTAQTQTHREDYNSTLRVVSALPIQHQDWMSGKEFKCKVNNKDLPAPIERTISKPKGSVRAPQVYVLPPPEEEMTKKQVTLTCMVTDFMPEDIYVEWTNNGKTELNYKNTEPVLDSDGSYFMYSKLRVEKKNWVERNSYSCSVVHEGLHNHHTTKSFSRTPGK

[2] = target: T2, mANGPTL3(17-240)-His (Mus musculus, UniProt Q9R182 17-240); assay: cell-based or functional assay
T2 sequence: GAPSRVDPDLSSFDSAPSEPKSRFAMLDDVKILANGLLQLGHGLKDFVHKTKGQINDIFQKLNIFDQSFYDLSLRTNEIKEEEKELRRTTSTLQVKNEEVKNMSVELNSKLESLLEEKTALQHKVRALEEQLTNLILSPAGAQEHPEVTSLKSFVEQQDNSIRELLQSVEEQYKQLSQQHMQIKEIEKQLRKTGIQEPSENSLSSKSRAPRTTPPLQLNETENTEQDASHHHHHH

[3] = target: T3, hANGPTL3(17-460)-His (human, UniProt Q9Y5C1 17-460); assay: SPR Biacore, antigen captured, 25C, pH 7.2, PBSP
T3 construct: Bought protein (R&D Systems); also called full-length mature human ANGPTL3 with a C-terminal decahistidine tag; Human ANGPTL3 (17-460)-His
T3 sequence: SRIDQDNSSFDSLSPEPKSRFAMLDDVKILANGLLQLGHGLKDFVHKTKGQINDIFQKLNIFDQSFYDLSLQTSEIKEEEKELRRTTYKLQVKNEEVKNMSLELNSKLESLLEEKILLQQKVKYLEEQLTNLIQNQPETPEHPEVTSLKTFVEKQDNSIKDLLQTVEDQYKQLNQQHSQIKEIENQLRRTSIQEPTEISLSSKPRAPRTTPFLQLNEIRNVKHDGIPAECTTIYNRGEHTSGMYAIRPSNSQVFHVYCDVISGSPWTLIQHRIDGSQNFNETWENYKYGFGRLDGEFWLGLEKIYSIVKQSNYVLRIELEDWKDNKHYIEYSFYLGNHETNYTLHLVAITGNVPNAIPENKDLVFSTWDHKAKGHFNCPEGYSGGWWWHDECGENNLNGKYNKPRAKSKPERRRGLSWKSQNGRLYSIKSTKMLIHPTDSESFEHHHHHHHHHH
Protocol: (§1) All kinetic binding experiments were performed at 25° C. or 37° C. on a BIACORE™ T200 label-free molecular interaction instrument (GE Healthcare) using a CM5 sensor chip. Briefly, an antigen capture surface was generated by covalently coupling either an anti-mouse IgG-specific antibody (anti-mFc; GE Healthcare; catalog #BR-1008-38) or an anti-pentahistidine-specific antibody (Qiagen; catalog #34660) to the surface of a CM5 sensor chip using a standard amine coupling method.

[4] = target: T4, hANGPTL3(17-170)-His (human, UniProt Q9Y5C1 17-170); assay: SPR Biacore, antigen captured, 25C, pH 7.2, PBSP
T4 construct: also called N-terminal coiled-coil domain of hANGPTL3 with a C-terminal hexahistidine tag; Human ANGPTL3 (17-170)-His
T4 sequence: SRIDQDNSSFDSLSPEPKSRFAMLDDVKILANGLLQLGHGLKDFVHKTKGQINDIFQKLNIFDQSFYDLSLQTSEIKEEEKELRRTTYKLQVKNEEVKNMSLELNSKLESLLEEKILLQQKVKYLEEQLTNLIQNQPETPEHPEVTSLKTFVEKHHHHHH
Protocol: as §1

[5] = target: T5, MfANGPTL3(17-170)-mmH (Macaca fascicularis); assay: SPR Biacore, antigen captured, 25C, pH 7.2, PBSP
T5 construct: also called N-terminal coiled-coil domain of ANGPTL3 from Macaca fascicularis with myc-myc-hexahistidine tag; Monkey ANGPTL3 (17-170)-mmH
T5 chain: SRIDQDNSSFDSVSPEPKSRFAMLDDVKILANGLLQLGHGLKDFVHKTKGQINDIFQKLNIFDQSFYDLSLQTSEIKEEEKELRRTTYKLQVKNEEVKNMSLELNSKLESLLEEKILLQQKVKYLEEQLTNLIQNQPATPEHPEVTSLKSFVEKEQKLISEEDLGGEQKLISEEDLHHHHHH
Protocol: as §1

[6] = target: T3, hANGPTL3(17-460)-His; assay: SPR Biacore, antigen captured, 37C, pH 5.75, PBSP
Protocol: as §1

[7] = target: T4, hANGPTL3(17-170)-His; assay: SPR Biacore, antigen captured, 37C, pH 5.75, PBSP
Protocol: as §1

[8] = target: T5, MfANGPTL3(17-170)-mmH; assay: SPR Biacore, antigen captured, 37C, pH 5.75, PBSP
Protocol: as §1

[9] = target: T3, hANGPTL3(17-460)-His; assay: SPR Biacore, antigen captured, 25C, pH 7.4, HBS-EP
Method in brief: (§2)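 Antigen was captured on a CM5 chip via amine-coupled anti-mouse IgG Fc or anti-pentahistidine antibody, and binding kinetics were measured by label-free SPR at 25 °C or 37 °C.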

[10] = target: T1, hANGPTL3(17-169)-mFc; assay: SPR Biacore, antigen captured, 25C, pH 7.4, HBS-EP
Method in brief: as §2

B1: H4H1276S (antibody, IgG4, V domains shown)
VH: EVQLVESGGGVIQPGGSLRLSCAASGFTFDDYAMNWVRQGPGKGLEWVSAISGDGGSTYYADSVKGRFTISRDNSKNSLYLQMNSLRAEDTAFFYCAKDLRNTIFGVVIPDAFDIWGQGTMVTVSS
VL: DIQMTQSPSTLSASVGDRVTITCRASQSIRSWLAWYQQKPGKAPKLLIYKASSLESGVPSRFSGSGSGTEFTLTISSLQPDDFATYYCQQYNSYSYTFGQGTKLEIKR
[1]
  IC50, LPL bioassay, 80 nM constant hANGPTL3(17-169)-mFc: 33 nM
[2]
  IC50, LPL bioassay, 500 nM constant mANGPTL3(17-240)-His: 64 nM
[3]
  Kd: 0.67 nM
  koff: 0.000402 s⁻¹
  kon: 599000 M⁻¹ s⁻¹
  t1/2: 28.8 min
[4]
  Kd: 1.09 nM
  koff: 0.0011 s⁻¹
  kon: 1e+06 M⁻¹ s⁻¹
  t1/2: 10.5 min
[5]
  Kd: 0.37 nM
  koff: 0.000538 s⁻¹
  kon: 1.45e+06 M⁻¹ s⁻¹
  t1/2: 21.5 min
[6]
  Kd: 227 nM
  koff: 0.0107 s⁻¹
  kon: 47100 M⁻¹ s⁻¹
  t1/2: 1.1 min
[7]
  Kd: 26.7 nM
  koff: 0.0324 s⁻¹
  kon: 1.22e+06 M⁻¹ s⁻¹
  t1/2: 0.4 min
[8]
  Kd: 18.8 nM
  koff: 0.00521 s⁻¹
  kon: 278000 M⁻¹ s⁻¹
  t1/2: 2.2 min
[9]
  Kd: 1.35 nM
  koff: 0.000464 s⁻¹
  kon: 344000 M⁻¹ s⁻¹
  t1/2: 25 min
[10]
  Kd: 0.659 nM
  koff: 0.000383 s⁻¹
  kon: 582000 M⁻¹ s⁻¹
  t1/2: 30 min
